Paper PMC5078848, “NtKRP, a kinesin-12 protein, regulates embryo/seed size and seed germination via involving in cell cycle progression at the G2/M transition” (Scientific Reports, 2016)
One block for each molecule: values may come before it.

What was measured:
MBP-NtKRP-Motor = molecular target: T1, MBP-NtKRP-Motor (Nicotiana tabacum, UniProt A0A0D3QSP8); assay: microtubule co-sedimentation, SDS-PAGE; assay type: binding; settings: taxol-stabilised microtubules, PEM buffer with 1 mM MgCl2, pH 6.8; nucleotide 5 µM
T1 construct: gene KRP; MBP-tagged motor domain, purified; motor 1-556 elsewhere
T1 sequence (A0A0D3QSP8 55-470 limits assumed): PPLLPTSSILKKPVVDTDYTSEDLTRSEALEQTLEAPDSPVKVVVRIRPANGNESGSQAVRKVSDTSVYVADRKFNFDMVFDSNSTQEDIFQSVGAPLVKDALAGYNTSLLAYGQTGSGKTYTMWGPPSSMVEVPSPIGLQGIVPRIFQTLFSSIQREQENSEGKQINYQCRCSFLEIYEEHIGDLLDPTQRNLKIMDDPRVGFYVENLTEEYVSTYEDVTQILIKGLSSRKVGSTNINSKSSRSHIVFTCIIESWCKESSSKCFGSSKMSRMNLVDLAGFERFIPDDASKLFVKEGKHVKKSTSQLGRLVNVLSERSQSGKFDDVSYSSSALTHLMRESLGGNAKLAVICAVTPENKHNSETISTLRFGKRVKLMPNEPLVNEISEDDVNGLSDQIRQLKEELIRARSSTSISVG

[1] = molecular target: microtubules (polymerized tubulin, taxol-stabilised); assay: co-sedimentation; 100 uL with 25 ug taxol-stabilised MTs and 50 ug NtKRP-motor in PEM buffer pH 6.8; without nucleotide, with ATP or with AMPPNP; room temperature 30 min, 25,000 x g 20 min at 25 C; SDS-PAGE of supernatant and pellet, Coomassie
[2] = molecular target: microtubules (polymerized tubulin, taxol-stabilised)
[3] = substrate: Nc1ncnc2c1ncn2[C@@H]1O[C@H](COP(=O)(O)OP(=O)(O)OP(=O)(O)O)[C@@H](O)[C@H]1O; assay: isothermal titration calorimetry ATPase assay; assay type: biochemical, Nicotiana tabacum; settings: microtubules 4.4 µM (Methods print 1.67 µM MTs), 10 µM taxol, BRB80 with 1 mM MgCl2, 50 mM NaCl, pH 6.8, 25 °C

Molecule: Nc1ncnc2c1ncn2[C@@H]1O[C@H](COP(=O)(O)OP(=O)(O)NP(=O)(O)O)[C@@H](O)[C@H]1O [AMPPNP]
microtubule co-sedimentation, SDS-PAGE (MBP-NtKRP-Motor): nonhydrolyzable ATP analog AMPPNP was used in place of ATP, most of the fusion protein

Molecule: Nc1ncnc2c1ncn2[C@@H]1O[C@H](COP(=O)(O)OP(=O)(O)OP(=O)(O)O)[C@@H](O)[C@H]1O [ATP]
microtubule co-sedimentation, SDS-PAGE (MBP-NtKRP-Motor): The addition of ATP significantly reduced the amount of the fusion protein co-sediment

percent coprecipitated with MTs (absence of ATP) [1]: 50%
Molecule: MBP-NtKRP motor domain fusion protein (domain or fragment)

K0.5,MT of the MT-stimulated ATPase activity of the motor domain (coupled enzyme assay, 1 mM ATP, 0-5 uM MTs) [2]: 22 µM
Molecule: recombinant NtKRP motor domain (amino acids 1–556) (domain or fragment)

B1: NtKRP motor domain (recombinant motor protein, amino acids 1–556) (Nicotiana tabacum) (protein)
chain: MSENRFLGNISASSIRNLLPKSVSTKKKLNSSRFKHKMNSENVAPIDPNIQITDPPLLPTSSILKKPVVDTDYTSEDLTRSEALEQTLEAPDSPVKVVVRIRPANGNESGSQAVRKVSDTSVYVADRKFNFDMVFDSNSTQEDIFQSVGAPLVKDALAGYNTSLLAYGQTGSGKTYTMWGPPSSMVEVPSPIGLQGIVPRIFQTLFSSIQREQENSEGKQINYQCRCSFLEIYEEHIGDLLDPTQRNLKIMDDPRVGFYVENLTEEYVSTYEDVTQILIKGLSSRKVGSTNINSKSSRSHIVFTCIIESWCKESSSKCFGSSKMSRMNLVDLAGFERFIPDDASKLFVKEGKHVKKSTSQLGRLVNVLSERSQSGKFDDVSYSSSALTHLMRESLGGNAKLAVICAVTPENKHNSETISTLRFGKRVKLMPNEPLVNEISEDDVNGLSDQIRQLKEELIRARSSTSISVGSNGYFRGPNVRESLNQLRVSLNRSLILPSIDNDREEEIHINEDDIKELQLQIDNLRGSHGDNSKETLEKKDSLKYSSGESEHYLSC
notes: N-terminal motor domain fragment, residues 1-556 of 1194 (full length 134 kDa); recombinant
Km [3]: 2.4 µM
kcat [3]: 80.3 s⁻¹
